Laboratory results as given in patent publication US20240010750A1 (Bayer, published 2024).
Where a chain is given by its changes, count along the chain named. Where two headings read alike, the source gives them in different places.

T1: human alpha2-Antiplasmin (human, UniProt P08697 40-491)
T1 construct: Bought (antibodies online, ABIN2544306); also called human A2AP; a2AP
T1 sequence: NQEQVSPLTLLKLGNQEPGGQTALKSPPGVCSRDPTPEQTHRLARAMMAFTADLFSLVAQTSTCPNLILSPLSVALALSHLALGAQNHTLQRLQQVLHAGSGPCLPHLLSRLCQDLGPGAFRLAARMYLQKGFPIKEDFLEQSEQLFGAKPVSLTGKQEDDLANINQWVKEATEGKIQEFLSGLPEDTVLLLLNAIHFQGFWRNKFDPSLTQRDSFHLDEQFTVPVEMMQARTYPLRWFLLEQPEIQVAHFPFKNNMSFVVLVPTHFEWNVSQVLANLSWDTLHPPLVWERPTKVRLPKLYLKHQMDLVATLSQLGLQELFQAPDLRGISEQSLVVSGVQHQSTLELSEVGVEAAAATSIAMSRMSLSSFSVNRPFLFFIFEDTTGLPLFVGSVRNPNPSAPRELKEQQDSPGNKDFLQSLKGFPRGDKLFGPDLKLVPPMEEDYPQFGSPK

T2: cynomolgus alpha2-Antiplasmin (cynomolgus (Macaca fascicularis), UniProt P08697 28-491 (human entry))
T2 construct: Made in house in the same way as the rabbit protein; also called cynomolgus A2AP; Macaca fascicularis A2AP
T2 chain: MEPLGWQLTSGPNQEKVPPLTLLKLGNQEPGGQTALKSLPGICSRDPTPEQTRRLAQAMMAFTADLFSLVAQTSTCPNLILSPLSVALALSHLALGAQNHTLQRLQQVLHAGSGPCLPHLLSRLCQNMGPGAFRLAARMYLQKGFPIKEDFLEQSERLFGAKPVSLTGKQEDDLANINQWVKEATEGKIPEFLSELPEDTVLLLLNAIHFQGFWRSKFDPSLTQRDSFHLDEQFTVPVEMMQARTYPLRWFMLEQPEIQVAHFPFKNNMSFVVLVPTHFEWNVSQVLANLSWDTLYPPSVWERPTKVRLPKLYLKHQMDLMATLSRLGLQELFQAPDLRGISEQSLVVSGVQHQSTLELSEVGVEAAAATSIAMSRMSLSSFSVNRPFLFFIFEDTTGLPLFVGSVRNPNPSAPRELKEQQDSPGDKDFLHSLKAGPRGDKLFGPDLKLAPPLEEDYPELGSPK

T3: rabbit alpha2-Antiplasmin (rabbit (Oryctolagus cuniculus))
T3 construct: Made in house in HEK293 cells, purified by Ni-IMAC and SEC (a His tag is implied but not described); also called rabbit A2AP; Oryctolagus cuniculus A2AP
T3 chain: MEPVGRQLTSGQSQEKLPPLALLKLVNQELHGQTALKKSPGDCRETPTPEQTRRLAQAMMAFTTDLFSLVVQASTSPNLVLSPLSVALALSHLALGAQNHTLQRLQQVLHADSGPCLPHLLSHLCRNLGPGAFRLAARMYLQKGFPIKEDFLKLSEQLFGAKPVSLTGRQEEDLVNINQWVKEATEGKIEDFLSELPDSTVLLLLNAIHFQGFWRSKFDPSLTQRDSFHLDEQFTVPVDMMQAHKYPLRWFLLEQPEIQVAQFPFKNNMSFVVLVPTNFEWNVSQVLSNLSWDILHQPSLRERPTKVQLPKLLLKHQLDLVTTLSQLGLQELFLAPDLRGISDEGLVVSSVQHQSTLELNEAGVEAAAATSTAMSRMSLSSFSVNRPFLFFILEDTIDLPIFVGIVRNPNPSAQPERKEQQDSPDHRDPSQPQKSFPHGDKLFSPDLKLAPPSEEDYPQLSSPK

B1: TPP-14318 hIgG1 (antibody, V domains shown)
VH: EVQLLESGGGLVQPGGSLRLSCAASGFTFDDYAMSWVRQAPGKGLEWVSAIGTGGGTYYADSVKGRFTISRDNSKNTLYLQMNSLRAEDTAVYYCAREYYDSSGYYHLEYWGQGTLVTVSS
VL: QSVLTQPPSASGTPGQRVTISCTGSSSNIGATYDVHWYQQLPGTAPKLLIYSNNQRPSGVPDRFSGSKSGTSASLAISGLRSEDEADYYCAAWDWSLSGWVFGGGTKLTVLG
B2: TPP-14313 hIgG1 (antibody, V domains shown)
VH: B1 VH with E109V
VL: QSVLTQPPSASGTPGQRVTISCTGSSSNIGATYDVHWYQQLPGTAPKLLIYSNNQRPSGVPDRFSGSKSGTSASLAISGLRSEDEADYYCAAWDWSLSGWVFGGGTKLTVL
notes: Human IgG1 lambda
B3: TPP-17048 hIgG1 (antibody, V domains shown)
VH: B1 VH with D30S, G56S, Y99G, E109D
VL: B1 VL
notes: Germline variant of TPP-14308
B4: TPP-17045 hIgG1 (antibody, V domains shown)
VH: B1 VH with R97K, Y99G, E109D
VL: B1 VL
notes: Germline variant of TPP-14308
B5: TPP-14323 hIgG1 (antibody, V domains shown)
VH: B1 VH with E109T
VL: B1 VL

Experiments:
human Plasmin = human Plasmin (human, UniProt P00747 97-580; P00747 581-810, limits assumed); assay: cell-based or functional assay
Chain of human Plasmin (P00747 97-580 limits assumed, chain 1 of 2): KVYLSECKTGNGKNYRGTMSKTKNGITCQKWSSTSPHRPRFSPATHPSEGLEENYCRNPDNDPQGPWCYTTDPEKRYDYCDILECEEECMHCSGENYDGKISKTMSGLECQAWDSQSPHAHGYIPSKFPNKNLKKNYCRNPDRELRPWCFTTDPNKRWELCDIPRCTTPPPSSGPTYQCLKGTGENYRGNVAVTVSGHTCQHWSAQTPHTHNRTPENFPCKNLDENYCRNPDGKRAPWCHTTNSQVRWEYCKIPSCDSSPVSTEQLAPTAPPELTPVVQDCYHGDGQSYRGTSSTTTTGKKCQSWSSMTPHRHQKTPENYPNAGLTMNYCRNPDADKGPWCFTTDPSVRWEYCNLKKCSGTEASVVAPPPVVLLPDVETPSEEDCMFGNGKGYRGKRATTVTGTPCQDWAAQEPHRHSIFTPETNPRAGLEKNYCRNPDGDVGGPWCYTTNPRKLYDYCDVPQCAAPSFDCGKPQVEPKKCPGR
Chain of human Plasmin (P00747 581-810 limits assumed, chain 2 of 2): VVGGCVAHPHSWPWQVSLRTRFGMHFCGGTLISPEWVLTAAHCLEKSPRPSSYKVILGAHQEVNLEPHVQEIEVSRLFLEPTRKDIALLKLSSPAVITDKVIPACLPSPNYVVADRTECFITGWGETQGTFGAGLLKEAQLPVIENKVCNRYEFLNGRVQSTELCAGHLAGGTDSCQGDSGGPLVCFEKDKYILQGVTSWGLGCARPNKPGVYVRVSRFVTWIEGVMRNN

human alpha2-Antiplasmin [1] = target: T1, human alpha2-Antiplasmin; assay: ELISA, coated antigen, 2nd exp.
Protocol: (§1) A standard ELISA format was used for analyzing the binding affinity of Fabs of this invention to human and rabbit alpha-2-Antiplasmin, respectively. Antigens were coated to black 384 well Maxisorp microtiter plates (Nunc; catalogue number 460518), diluted to a concentration of 1 μg/ml in 1× Coating Buffer (Candor Bioscience; catalogue number 121125). Plates were incubated overnight at 4° C. After overnight incubation, plates were washed 2× with 50 μl/well using PBS+0.05% Tween 20. Following this, 50 μl/well of blocking buffer (Smart Block; Candor Bioscience; catalogue number 113500) was added and the plates were incubated for 1 hour at room temperature. Afterwards, plates were washed for 3× using […] PBS+0.05% Tween 20 buffer. Fabs of this invention were added at different concentrations in a final volume of 30 μl/well. Plates were incubated for 1 hour at room temperature. Following this incubation step, plates were washed for 3× using 50 μl/well of a PBS+0.05% Tween 20 buffer. For the detection of bound Fabs and full-length antibodies, the anti-Human Lambda Light Chains (Bound and Free)—Peroxidase antibody (Sigma; catalogue number A5175) was diluted by the factor of 1:10.000 in 10% Blocking Buffer. 30 μl/well of this diluted detection antibody was added and plates are incubated for 1 hour at room temperature. Following this incubation step, plates were washed for 3× using 50 μl/well of a PBS+0.05% Tween 20 buffer. As substrate, a mixture of 30 μl/well of 1:1000 diluted Amplex red (Invitrogen; catalogue number 12222; stock solution 10 mM in DMSO) and 1:10.000 of Hydrogen peroxide (Merck; catalogue number 107209; 30% stock solution) was added and the plates incubated for minutes in the dark.
(§2) For measurement, the Infinite f500 reader (Tecan) was used. Measurement mode: Fluorescence; Top reading; Ex 535 nm; Em 590 nm.
(§3) According to the methods described in Example 3 and Example 4, antibodies TPP-14323, TPP-14318, TPP-14314, TPP-14313, TPP-14308, TPP-14305, TPP-14303, TPP-14298, and TPP-14293 were tested for their ability to bind to and to block the activity of human alpha2-Antiplasmin in a dose-dependent manner. For each antibody, one dose response curve from two to three independent experiments performed in quadruplicate is shown as example in FIG. 7.1 to FIG. 7.18. (see Table 3.3)

human alpha2-Antiplasmin [2] = target: T1, human alpha2-Antiplasmin; assay: cell-based or functional assay
human alpha2-Antiplasmin [3] = target: T1, human alpha2-Antiplasmin; assay: cell-based or functional assay; remark: listed apart in the source
human alpha2-Antiplasmin [4] = target: T1, human alpha2-Antiplasmin; assay: ELISA, coated antigen, 3rd exp.
Protocol: as §1, §2, §3

human alpha2-Antiplasmin [5] = target: T1, human alpha2-Antiplasmin; assay: ELISA, coated antigen, 1st exp.
Protocol: as §1, §2, §3

human alpha2-Antiplasmin [6] = target: T1, human alpha2-Antiplasmin; assay: ELISA (Example 3), human alpha2-Antiplasmin coated, RFU
Protocol: as §1, with “As substrate, a mixture of 30 μl/well of 1:1000 diluted Amplex red (Invitrogen; catalogue number 12222; stock solution 10 mM in DMSO) and 1:10.000 of Hydrogen peroxide (Merck; catalogue number 107209; 30% stock solution) was added and the plates incubated for minutes in the dark.” left out
as §2
According to the method described in Example 3, these 12 antibodies were tested for ability to bind human and rabbit alpha2-Antiplasmin in a dose-dependent manner. Data generated were analyzed using the GraphPadPrism software. The binding activities of the antibodies were calculated as EC50 values. […]

human alpha2-Antiplasmin [7] = target: T1, human alpha2-Antiplasmin; assay: cell-based or functional assay; remark: listed apart in the source
human alpha2-Antiplasmin [8] = target: T1, human alpha2-Antiplasmin; assay: cell-based or functional assay; remark: listed apart in the source
human alpha2-Antiplasmin [9] = target: T1, human alpha2-Antiplasmin; assay: ELISA (Example 3), human alpha2-Antiplasmin coated, RFU; remark: listed apart in the source
Protocol: as §1, with “30 μl/well of this diluted detection antibody was added and plates are incubated for 1 hour at room temperature. Following this incubation step, plates were washed for 3× using 50 μl/well of a PBS+0.05% Tween 20 buffer. As substrate, a mixture of 30 μl/well of 1:1000 diluted Amplex red (Invitrogen; catalogue number 12222; stock solution 10 mM in DMSO) and 1:10.000 of Hydrogen peroxide (Merck; catalogue number 107209; 30% stock solution) was added and the plates incubated for minutes in the dark.” left out
as §2

human alpha2-Antiplasmin [10] = target: T1, human alpha2-Antiplasmin; assay: ELISA, coated antigen, quantified unpurified antibody, 1st exp.
[11] = target: T2, cynomolgus alpha2-Antiplasmin; assay: SPR Biacore T200, antibody captured on protein G chip, A2AP as analyte, 25 C
Protocol: (§4) Binding assays were performed on a Biacore T200 instrument at 25° C. with a protein G sensor chip and assay buffer HBS-EP+. Antibodies were captured to ˜150 RU and analytes were used at concentrations between 1.56 and 200 nM for full kinetics. As interaction partner, alpha2-Antiplasmin from human, cynomolgus and rabbit was used. Regeneration was performed with glycine-HCl pH 1.5. Kinetic parameters were derived by fitting experimental sensorgrams to a 1:1 Langmuir binding model.

[12] = target: T3, rabbit alpha2-Antiplasmin; assay: as above
Protocol: as §4

human alpha2-Antiplasmin [13] = target: T1, human alpha2-Antiplasmin; assay: as above
Protocol: as §4

human alpha2-Antiplasmin [14] = target: T1, human alpha2-Antiplasmin; assay: ELISA, coated antigen, quantified unpurified antibody, 2nd exp.
human alpha2-Antiplasmin [15] = target: T1, human alpha2-Antiplasmin; assay: cell-based or functional assay; remark: listed apart in the source
human alpha2-Antiplasmin [16] = target: T1, human alpha2-Antiplasmin; assay: cell-based or functional assay; remark: listed apart in the source
human alpha2-Antiplasmin [17] = target: T1, human alpha2-Antiplasmin; assay: cell-based or functional assay; remark: listed apart in the source
human alpha2-Antiplasmin [18] = target: T1, human alpha2-Antiplasmin; assay: ELISA, coated antigen, quantified unpurified antibody, 3rd exp.
Protocol: as §1, §2

human alpha2-Antiplasmin [19] = target: T1, human alpha2-Antiplasmin; assay: cell-based or functional assay; remark: listed apart in the source

Binder | IC50 [M], inhibition of plasmin proteolytic activity (human Plasmin) | EC50 (human alpha2-Antiplasmin [1]) | function blocking activity [IC50 M], 1st exp. (human alpha2-Antiplasmin [2]) | function blocking activity [IC50 M], 2nd exp. (human alpha2-Antiplasmin [2]) | function blocking activity [IC50 M], 3rd exp. (human alpha2-Antiplasmin [2]) | EC50 (human alpha2-Antiplasmin [4]) | EC50 (human alpha2-Antiplasmin [5]) | function blocking activity [IC50 M], 1st exp. (human alpha2-Antiplasmin [8]) | function blocking activity [IC50 M], 2nd exp. (human alpha2-Antiplasmin [8]) | EC50 (read off the curve) (human alpha2-Antiplasmin [9]) | EC50 (human alpha2-Antiplasmin [10]) | Kd [11] | Kd [12] | Kd (human alpha2-Antiplasmin [13]) | EC50 (human alpha2-Antiplasmin [14]) | IC50, A2AP function blocking assay (Example 10) (human alpha2-Antiplasmin [16]) | further results
B1 | > 1e-05 M | 59 nM | 20 nM | 25 nM | 22 nM | 61 nM | 5.7 nM |  |  |  |  |  |  |  |  |  | EC50 (read off the curve); function blocking assay (Example 4), RFU of plasmin substrate cleavage (human alpha2-Antiplasmin [3]): ~20 nM
B2 | > 5e-06 M | 35 nM | 12 nM | 20 nM | 13 nM | 34 nM | 3.3 nM |  |  |  |  |  |  |  |  |  | EC50 (read off the curve) (human alpha2-Antiplasmin [6]): ~3 nM; EC50 (read off the curve); function blocking assay (Example 4), RFU of plasmin substrate cleavage (human alpha2-Antiplasmin [7]): ~10 nM
B3 | > 1e-05 M |  |  |  |  |  |  | 0.28 nM | 0.39 nM | ~0.2 nM | 0.18 nM | 5.8 nM | 9.7 nM | 7.9 nM | 0.36 nM | 1.2 nM | function blocking activity [IC50 M], 3rd exp. (human alpha2-Antiplasmin [8]): 0.3 nM; EC50 (read off the curve); function blocking assay (Example 4), RFU of plasmin substrate cleavage (human alpha2-Antiplasmin [15]): ~0.3 nM
B4 | > 1e-05 M |  |  |  |  |  |  | 0.4 nM | 0.5 nM | ~0.08 nM | 0.085 nM | 11 nM | 49 nM | 14 nM | 0.12 nM | 0.14 nM | EC50 (read off the curve); function blocking assay (Example 4), RFU of plasmin substrate cleavage (human alpha2-Antiplasmin [17]): ~0.4 nM; EC50 (human alpha2-Antiplasmin [18]): 0.11 nM
B5 | > 1e-05 M | 73 nM | 20 nM | 20 nM | 29 nM | 71 nM | 7 nM |  |  |  |  |  |  |  |  |  | EC50 (read off the curve); function blocking assay (Example 4), RFU of plasmin substrate cleavage (human alpha2-Antiplasmin [19]): ~20 nM
